Reference: patent US12583888B2, “Bi-specific extracellular matrix binding peptides and methods of use thereof” (University of Tartu, priority 2019, dated 2026)

Experiments:
Conditions in all cases: i.v. equimolar mix, 2 h circulation
P3 stem cell-like tumor = tested on: P3 stem cell-like tumor
Description: (§1) In vivo play-off was used to evaluate systemic homing of peptide phage to xenograft tumor models. The in vitro selected candidate TNC-C binding peptides, phages displaying published tumor homing peptides, and control peptides were amplified and purified by precipitation with PEG-8000 (Sigma-Aldrich, St. Louis, MO, USA), followed by CsCl2 gradient ultracentrifugation and dialysis. The amplified phage peptides were pooled in equimolar quantities, and injected intravenously (final 1×10^10 pfu in 200 μl PBS) in tumor-bearing mice for two hour circulation, after which mice were anesthetized with 2.5% avertin and intracardially perfused with DMEM intracardially. The tumors and organs were collected in lysogeny broth (LB)+1% NP40, and the tissues were homogenized using a hand-held homogenizer for phage peptide rescue. Phages in the tissue lysates were amplified in E. coli, purified by precipitation with PEG-8000 and DNA was extracted using a DNA extraction kit (High Pure PCR Template Preparation Kit; Roche, Basel, Switzerland). Next-generation sequencing of phage genomic DNA evaluated the representation of each phage in input mixture, in tumor and control organs with Ion Torrent system (Thermo Fisher Scientific, Waltham, MA, USA). The next generation deep sequencing of phage library was done using Ion Torrent according to the manufacturer's protocol with slight modification. The FASTQ data from Ion Torrent was processed by a custom python script that identified the barcodes, constant flanking residues, and extracted the reads of the correct length.

[1] = tested on: PC3 prostate carcinoma xenografts
Description: as §1

WT-GBM tumor = tested on: WT-GBM tumor
Description: as §1

U87-MG glioblastoma = tested on: U87-MG glioblastoma
Description: as §1

normal brain = tested on: normal brain
Description: as §1

P13 tumor = tested on: P13 tumor
Description: as §1

Substance	Representation of phage in tumors (fold G7 control phage), P3 SCL (P3 stem cell-like tumor) [fold]	Representation of phage in tumors (fold G7 control phage), PC3 [1] [fold]	Representation of phage in tumors (fold G7 control phage), WT-GBM (WT-GBM tumor) [fold]	Representation of phage in tumors (fold G7 control phage), U87-MG (U87-MG glioblastoma) [fold]	Representation of phage in control brain tissue (fold G7 control phage), Norm. brain (normal brain) [fold]	Representation of phage in tumors (fold G7 control phage), P13 (P13 tumor) [fold]
VGRVRFSRKLAAALE	0.4	1.2	2.5	0.7	0.1	0.5
CSRRGILRAKPAAALE	0.9	1.2	1.5	1.1	0.1	0.8
RGRLVRA	0.3	1.8	3	0.8	0.1	0.4
CRGVLRRAKLAAALE	0.4	0.9	1.6	0.7	0.1	0.4
GRLTRVR	0.5	0.9	1.9	0.9	0.1	0.5
CAGRGRLVRC	0.2	0.4	0.9	0.1	0.0	0.4
GGGGGGG [reference compound]	1.0	1.0	1.0	1.0	1	1.0
RRLVRVA	0.3	0.9	1.4	0.6	0.1	0.4
RGRLVRAK	0.3	3.0	23.8	0.5	0.2	0.1
AGRGRLVRAKLAAALE	0.4	0.3	23.9	0.2	0.0	0.1
AGVGRLRRAKLAAALE	0.9	1.4	2.3	1.0	0.2	0.9
